Measured values: publication PMC5740674 (Proceedings of the National Academy of Sciences of the …, 2017)
Where a chain is given by its changes, count along the chain named. In names and notes the source's numbering stands. Blank lines part the entries; values can stand above or below the binder they belong to. Square brackets hold non-standard residues; d marks the D form. Ends that are not written are not given here. pT = C[C@@H](OP(=O)(O)O)[C@H](N)C(=O)O

T1: Dsn1^DD–Nsl1 subcomplex (Dsn1 S68D S77D) (S. pombe, UniProt Q9UUB5 1-329; Q9P6M3 1-210, S68D | S77D)
T1 sequence (looked up) 1: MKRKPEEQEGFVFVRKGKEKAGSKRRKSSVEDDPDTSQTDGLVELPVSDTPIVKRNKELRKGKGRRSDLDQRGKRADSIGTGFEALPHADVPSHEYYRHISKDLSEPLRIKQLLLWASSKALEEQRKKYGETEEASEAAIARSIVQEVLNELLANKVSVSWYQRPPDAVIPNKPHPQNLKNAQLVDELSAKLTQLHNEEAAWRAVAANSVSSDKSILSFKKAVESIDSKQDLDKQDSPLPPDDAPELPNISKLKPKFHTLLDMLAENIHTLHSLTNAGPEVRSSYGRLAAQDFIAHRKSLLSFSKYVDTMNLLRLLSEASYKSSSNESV
T1 sequence (looked up) 2: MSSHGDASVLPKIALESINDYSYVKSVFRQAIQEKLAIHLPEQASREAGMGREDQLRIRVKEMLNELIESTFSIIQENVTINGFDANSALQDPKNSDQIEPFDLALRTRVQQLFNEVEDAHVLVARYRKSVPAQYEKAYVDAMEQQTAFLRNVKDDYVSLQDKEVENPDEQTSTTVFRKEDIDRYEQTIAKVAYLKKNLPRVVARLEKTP

T2: GST-Cnp3(fl), full-length Cnp3 (S. pombe, UniProt Q9USR9 1-643)
T2 sequence (looked up): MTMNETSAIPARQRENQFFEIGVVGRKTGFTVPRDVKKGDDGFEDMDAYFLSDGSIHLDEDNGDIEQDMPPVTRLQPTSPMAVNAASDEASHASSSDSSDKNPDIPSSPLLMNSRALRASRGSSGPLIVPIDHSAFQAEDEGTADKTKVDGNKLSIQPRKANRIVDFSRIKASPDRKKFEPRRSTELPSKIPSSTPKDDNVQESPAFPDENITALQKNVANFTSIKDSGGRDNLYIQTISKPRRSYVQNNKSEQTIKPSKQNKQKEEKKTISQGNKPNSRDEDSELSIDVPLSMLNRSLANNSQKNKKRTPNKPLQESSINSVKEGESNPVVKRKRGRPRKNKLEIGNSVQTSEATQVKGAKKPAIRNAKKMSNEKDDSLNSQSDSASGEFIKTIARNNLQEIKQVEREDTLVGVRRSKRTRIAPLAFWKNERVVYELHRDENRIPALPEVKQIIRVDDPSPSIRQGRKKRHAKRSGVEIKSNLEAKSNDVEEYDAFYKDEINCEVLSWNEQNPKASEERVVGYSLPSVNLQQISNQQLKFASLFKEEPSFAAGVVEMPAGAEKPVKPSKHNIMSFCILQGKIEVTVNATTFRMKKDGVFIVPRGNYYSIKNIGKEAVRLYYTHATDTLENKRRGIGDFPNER

T3: Mis12, full length (subunit of the Mis12–Nnf1 complex) (S. pombe, UniProt Q9Y738 1-259)
T3 sequence (looked up): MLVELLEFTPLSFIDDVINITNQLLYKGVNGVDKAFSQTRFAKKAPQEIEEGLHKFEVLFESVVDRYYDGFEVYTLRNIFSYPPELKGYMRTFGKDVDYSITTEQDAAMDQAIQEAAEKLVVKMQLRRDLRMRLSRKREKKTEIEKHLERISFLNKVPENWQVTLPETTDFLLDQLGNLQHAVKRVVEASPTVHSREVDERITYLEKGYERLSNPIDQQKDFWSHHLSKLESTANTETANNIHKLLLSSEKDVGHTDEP

B1: Dsn1–Nsl1 subcomplex (complex, S. pombe)
chain 1: T1 sequence (looked up) 1 with D68S, D77S
chain 2: T1 sequence (looked up) 2
B2: Mis12–Nnf1 complex (full-length Mis12 and full-length Nnf1) (complex, S. pombe)
chain 1: T3 sequence (looked up)
chain 2: MTSRKEQLDAFLSRTLSETIAHIPLEKFAQCFPSMKKGKVIAVIHQQLIEFFEKSCKQEYANLIKERDLNKKLDMLDECIHDAEFRKLHGESEVDISNKQPQEILKAHLYSHKRELLDKLNQDLLDIDKENEGLSTQIAGEEKATEDCISRMQSLIQKLEKTVYGMNEKNLAKEAHDTLNDLLPYIQNPSSTWTNALNEQGNIER
B3: GST-Cnp3(1–60)^WT (domain or fragment, S. pombe, UniProt Q9USR9 1-60, looked up)
chain: MTMNETSAIPARQRENQFFEIGVVGRKTGFTVPRDVKKGDDGFEDMDAYFLSDGSIHLDE
B4: GST-Cnp3(1–155)^T28A (domain or fragment, S. pombe, UniProt Q9USR9 1-155, looked up)
chain: MTMNETSAIPARQRENQFFEIGVVGRKAGFTVPRDVKKGDDGFEDMDAYFLSDGSIHLDEDNGDIEQDMPPVTRLQPTSPMAVNAASDEASHASSSDSSDKNPDIPSSPLLMNSRALRASRGSSGPLIVPIDHSAFQAEDEGTADKTKVDGNKLS
B5: Mis12–Nnf1 complex with Mis12 R66A (complex, S. pombe)
chain 1: T3 sequence (looked up) with R66A
chain 2: B2 chain 2
B6: GST-Cnp3(1–155) (domain or fragment, S. pombe, UniProt Q9USR9 1-155, looked up)
chain: B4 chain with A28T
B7: Mis12–Nnf1 complex with Mis12 Y67A (complex, S. pombe)
chain 1: T3 sequence (looked up) with Y67A
chain 2: B2 chain 2
B8: Nnf1, full length, untagged (subunit of the Mis12–Nnf1 complex) (natural protein, S. pombe, UniProt Q09858 1-205, looked up)
chain: B2 chain 2

Columns and labels:
[1] = biological target: B2; test: ITC
[2] = biological target: B2; test: SEC-MALS
[3] = biological target: T1, Dsn1^DD–Nsl1 subcomplex (Dsn1 S68D S77D); test: SEC-MALS
[4] = biological target: T2, GST-Cnp3(fl), full-length Cnp3; test: pull-down
[5] = biological target: B2; test: pull-down
[6] = biological target: T3, Mis12, full length (subunit of the …); test: SEC-MALS

Kd [1]: 92 µM
Binder: RK[pT]GFTVPRDVKKGDDGFEDMDAYFLS (peptide, UniProt Q9USR9 26-52, looked up) [Cnp3(26–52)^pT28 peptide]

Binder: B1
stoichiometry N [2]: 1

Binder: B2
binding result [3]: binds
binding result [4]: binds

Kd [1]: 12.6 µM
Binder: RKTGFTVPRDVKKGDDGFEDMDAYFLS (peptide, UniProt Q9USR9 26-52, looked up) [Cnp3(26–52) peptide]

Binder: B3
binding result [5]: binds

Binder: B4
binding result [5]: binds

binding result [5]: binds
Binder: RKTGFTVPRDVKKGDDGFEDMDAYF (domain or fragment, S. pombe, UniProt Q9USR9 26-50, looked up) [GST-Cnp3(26–50)]

Binder: B5
binding result [4]: binds

Binder: B6
binding result [5]: binds

Binder: B7
binding result [4]: binds

Binder: B8
stoichiometry N [6]: 1
